Measured values taken from US20110263454A1, “Methods of Identifying Functional Characteristics of Promoters, Transcription Modifying Proteins and Transcription Modulating Agents” (Salk Institute for Biological Studies, priority 2008, published 2011).

B1: RARb: Retinoic acid receptor β (NR1B2), nuclear hormone receptor cDNA driver (protein, UniProt P10826 1-455, looked up)
Retinoic acid receptor beta: MTTSGHACPVPAVNGHMTHYPATPYPLLFPPVIGGLSLPPLHGLHGHPPPSGCSTPSPATIETQSTSSEELVPSPPSPLPPPRVYKPCFVCQDKSSGYHYGVSACEGCKGFFRRSIQKNMIYTCHRDKNCVINKVTRNRCQYCRLQKCFEVGMSKESVRNDRNKKKKETSKQECTESYEMTAELDDLTEKIRKAHQETFPSLCQLGKYTTNSSADHRVRLDLGLWDKFSELATKCIIKIVEFAKRLPGFTGLTIADQITLLKAACLDILILRICTRYTPEQDTMTFSDGLTLNRTQMHNAGFGPLTDLVFTFANQLLPLEMDDTETGLLSAICLICGDRQDLEEPTKVDKLQEPLLEALKIYIRKRRPSKPHMFPKILMKITDLRSISAKGAERVITLKMEIPGSMPPLIQEMLENSEGHEPLTPSSSGNTAEHSPSISPSSVENSGVSQSPLVQ
B2: RVRb: Rev-Erb β (NR1D2, alternative name RVR), cDNA driver (protein, UniProt Q14995 1-579, looked up)
Nuclear receptor subfamily 1 …: MEVNAGGVIAYISSSSSASSPASCHSEGSENSFQSSSSSVPSSPNSSNSDTNGNPKNGDLANIEGILKNDRIDCSMKTSKSSAPGMTKSHSGVTKFSGMVLLCKVCGDVASGFHYGVHACEGCKGFFRRSIQQNIQYKKCLKNENCSIMRMNRNRCQQCRFKKCLSVGMSRDAVRFGRIPKREKQRMLIEMQSAMKTMMNSQFSGHLQNDTLVEHHEQTALPAQEQLRPKPQLEQENIKSSSPPSSDFAKEEVIGMVTRAHKDTFMYNQEQQENSAESMQPQRGERIPKNMEQYNLNHDHCGNGLSSHFPCSESQQHLNGQFKGRNIMHYPNGHAICIANGHCMNFSNAYTQRVCDRVPIDGFSQNENKNSYLCNTGGRMHLVCPMSKSPYVDPHKSGHEIWEEFSMSFTPAVKEVVEFAKRIPGFRDLSQHDQVNLLKAGTFEVLMVRFASLFDAKERTVTFLSGKKYSVDDLHSMGAGDLLNSMFEFSEKLNALQLSDEEMSLFTAVVLVSADRSGIENVNSVEALQETLIRALRTLIMKNHPNEASIFTKLLLKLPDLRSLNNMHSEELLAFKVHP
B3: RARg: Retinoic acid receptor γ (NR1B3), nuclear hormone receptor cDNA driver (protein, UniProt P13631 1-454, looked up)
Retinoic acid receptor gamma: MATNKERLFAAGALGPGSGYPGAGFPFAFPGALRGSPPFEMLSPSFRGLGQPDLPKEMASLSVETQSTSSEEMVPSSPSPPPPPRVYKPCFVCNDKSSGYHYGVSSCEGCKGFFRRSIQKNMVYTCHRDKNCIINKVTRNRCQYCRLQKCFEVGMSKEAVRNDRNKKKKEVKEEGSPDSYELSPQLEELITKVSKAHQETFPSLCQLGKYTTNSSADHRVQLDLGLWDKFSELATKCIIKIVEFAKRLPGFTGLSIADQITLLKAACLDILMLRICTRYTPEQDTMTFSDGLTLNRTQMHNAGFGPLTDLVFAFAGQLLPLEMDDTETGLLSAICLICGDRMDLEEPEKVDKLQEPLLEALRLYARRRRPSQPYMFPRMLMKITDLRGISTKGAERAITLKMEIPGPMPPLIREMLENPEMFEDDSSQPGPHPNASSEDEVPGGQGKGGLKSPA
B4: RARa: Retinoic acid receptor α (NR1B1), nuclear hormone receptor cDNA driver (protein, UniProt P10276 1-462, looked up)
Retinoic acid receptor alpha: MASNSSSCPTPGGGHLNGYPVPPYAFFFPPMLGGLSPPGALTTLQHQLPVSGYSTPSPATIETQSSSSEEIVPSPPSPPPLPRIYKPCFVCQDKSSGYHYGVSACEGCKGFFRRSIQKNMVYTCHRDKNCIINKVTRNRCQYCRLQKCFEVGMSKESVRNDRNKKKKEVPKPECSESYTLTPEVGELIEKVRKAHQETFPALCQLGKYTTNNSSEQRVSLDIDLWDKFSELSTKCIIKTVEFAKQLPGFTTLTIADQITLLKAACLDILILRICTRYTPEQDTMTFSDGLTLNRTQMHNAGFGPLTDLVFAFANQLLPLEMDDAETGLLSAICLICGDRQDLEQPDRVDMLQEPLLEALKVYVRKRRPSRPHMFPKMLMKITDLRSISAKGAERVITLKMEIPGSMPPLIQEMLENSEGLDTLSGQPGGGGRDGGGLAPPPGSCSPSLSPSSNRSSPATHSP

system: mPgc1b promoter; assay: NHR-promoter luciferase screen, mPgc1b promoter; type: cell-based, mouse; details: PGC1b promoter reporter; co-transfected HR, without or with its ligand
Procedure, shortened: (§1)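 CV-1 cells co-transfected with NHR homodimer or NHR/RXR heterodimer (pcDNA3.1, C-terminal V5H6 tag), promoter-luciferase construct and LacZ transfection control. Orphan receptors screened without ligand. Luciferase normalized to LacZ and to no-NHR/no-ligand control.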

Row | Molecule | Luc. act., normalized to lacZ
1 | B1 | 14.32
2 | B2 | 9.3
3 | B3 | 12.70
4 | B4 | 12.69

same assay, conditions: PGC1b promoter reporter; co-transfected HR, without or with its ligand; relative to control

Row | Molecule | Normalized Luc. act., normalized to control
5 | B1 | 1.2
6 | B2 | 0.8
7 | B3 | 1.1
8 | B4 | 1.1

same assay, conditions: mPgc1b promoter-luciferase, CV-1 cells, NHR +/- ligand, control = 1.00

Row | Molecule | luciferase activity normalized to lacZ activity and to a control, mPgc1b
9 | B1 | 1.21
10 | B2 | 0.78
11 | B3 | 1.07
12 | B4 | 1.07

system: MCP-1 promoter; assay: NHR-promoter luciferase screen, MCP-1 promoter; type: cell-based; details: MCP-1 promoter reporter; HR without or with its ligand; relative to control
Procedure, shortened: (§2)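 CV-1 cells were co-transfected with 50 ng NHR (homodimer or NHR/RXR heterodimer), 100 ng promoter-luciferase construct and 50 ng LacZ. Luciferase was normalized to LacZ and to a no-NHR/no-ligand control.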

Row | Molecule | Normalized Luc. act., normalized to control
13 | B1 | 1.8
14 | B2 | 1.6
15 | B3 | 1.6
16 | B4 | 1.7

same assay, conditions: MCP-1 promoter reporter; hormone receptor (HR) without or with its ligand

Row | Molecule | Luc. act., normalized to lacZ
17 | B1 | 197.0
18 | B2 | 170.4
19 | B3 | 167.8
20 | B4 | 182.3

same assay, conditions: transcription factor +/- ligand; control = 1.00

Row | Molecule | mMCP-1 promoter reporter activity
21 | B1 | 1.84
22 | B2 | 1.59
23 | B3 | 1.57
24 | B4 | 1.70

system: hCYP3A4 promoter; assay: NHR-promoter luciferase screen, hCYP3A4 promoter; type: cell-based, human; details: CYP3A4 promoter; HR/ligand component
Procedure, shortened: as §1

Row | Molecule | Luc. act., normalized to lacZ | Normalized Luc. act., normalized to control
25 | B1 | 4.6 | 1.0
26 | B2 | 4.5 | 1.0
27 | B3 | 4.0 | 0.9
28 | B4 | 4.2 | 0.9

same assay, conditions: transcription factor +/- ligand; control = 1.00

Row | Molecule | hCYP3A4 promoter reporter activity
29 | B1 | 1.03
30 | B2 | 1.01
31 | B3 | 0.91
32 | B4 | 0.94

system: mDio1 promoter; assay: NHR-promoter luciferase screen, mDio1 promoter; type: cell-based, mouse; details: Dio1; HR component without or with its ligand
Procedure, shortened: as §2

Row | Molecule | Luc. act., normalized to lacZ | Normalized Luc. act., normalized to control
33 | B1 | 6.8 | 1.5
34 | B2 | 8.8 | 2.0
35 | B3 | 7.2 | 1.6
36 | B4 | 7.4 | 1.7

same assay, conditions: transcription factor +/- ligand; control = 1.00

Row | Molecule | mDio1 promoter reporter activity
37 | B1 | 1.54
38 | B2 | 1.97
39 | B3 | 1.61
40 | B4 | 1.66

system: mDio2 promoter; assay: NHR-promoter luciferase screen, mDio2 promoter; type: cell-based, mouse; details: Dio2; HR component without or with its ligand
Procedure, shortened: as §2

Row | Molecule | Luc. act., normalized to lacZ | Normalized Luc. act., normalized to control
41 | B1 | 32.7 | 2.1
42 | B2 | 19.7 | 1.3
43 | B3 | 35.2 | 2.2
44 | B4 | 40.3 | 2.6

same assay, conditions: transcription factor +/- ligand; control = 1.00

Row | Molecule | mDio2 promoter reporter activity
45 | B1 | 2.08
46 | B2 | 1.26
47 | B3 | 2.24
48 | B4 | 2.56

system: mABCA1 promoter; assay: NHR-promoter luciferase screen, mABCA1 promoter; type: cell-based, mouse; details: ABCA1 promoter; hormone receptor with or without its ligand
Procedure, shortened: as §2

Row | Molecule | Luc. act., normalized to lacZ
49 | B1 | 36.8
50 | B2 | 36.8
51 | B3 | 26.4
52 | B4 | 24.6

same assay, conditions: ABCA1 promoter; hormone receptor with or without its ligand; relative to control

Row | Molecule | Normalized Luc. act., normalized to control
53 | B1 | 6.6
54 | B2 | 6.6
55 | B3 | 4.7
56 | B4 | 4.4

same assay, conditions: transcription factor +/- ligand; control = 1.00

Row | Molecule | mABCA1 promoter reporter activity
57 | B1 | 6.55
58 | B2 | 6.55
59 | B3 | 4.69
60 | B4 | 4.39
